Laboratory results as given in PMC8860565, “Molecular Insights into How the Dimetal Center in Dihydropyrimidinase Can Bind the Thymine Antagonist 5-Aminouracil: A Different Binding Mode from the Anticancer Drug 5-Fluorouracil” (Bioinorganic Chemistry and Applications, 2022).

Biological target: the molecule itself
Assay: crystal structure; hanging drop vapor diffusion, room temperature, 16% PEG 8000, 100 mM HEPES, 200 mM calcium acetate, 200 μM 5-AU, pH 7.5; two monomers in the asymmetric unit

B1: Pseudomonas aeruginosa dihydropyrimidinase (enzyme)
chain: MSLLIRGATVVTHEESYRADVLCANGLIQAIGENLETPSGCDVLDGGGQYLMPGGIDPHTHMQLPFMGTVASEDFFSGTAAGLAGGTTSIIDFVIPNPRQSLLEAFHTWRGWAQKSAADYGFHVAITWWSDEVAREMGELVAQHGVNSFKHFMAYKNAIMAADDTLVASFERCLELGAVPTVHAENGELVFHLQQKLLAQGLTGPEAHPLSRPPQVEGEAASRAIRIAETLGTPLYLVHISSREALDEIAYARAKGQPVYGEVLAGHLLLDDSVYRHPDWATAAGYVMSPPFRPVEHQEALWRGLQSGNLHTTATDHCCFCAEQKAMGRDDFSKIPNGTAGIEDRMALLWDAGVNSGRLSMHEFVALTSTNTAKIFNLFPRKGAIRVGADADLVLWDPQGSRTLSAATHHQRVDFNIFEGRTVRGIPSHTISQGKLLWAAGDLRAEPGAGRYVERPAYPSVYEVLGRRAERQRPVAVER
modifications: carbamylated Lys150 (Kcx150)
notes: dihydropyrimidinase of Pseudomonas aeruginosa (PaDHPase), wild type; Binuclear Zn centre (Znα, Znβ) in each monomer; also called PaDHPase; DHPase
Does B1 bind?
Result: binds
